Data: PMC3242763

The molecules below were run against Prostate specific antigen used in the inhibition kinetics (human) (UniProt P07288).
Chain of UniProt P07288 (P07288 25-261): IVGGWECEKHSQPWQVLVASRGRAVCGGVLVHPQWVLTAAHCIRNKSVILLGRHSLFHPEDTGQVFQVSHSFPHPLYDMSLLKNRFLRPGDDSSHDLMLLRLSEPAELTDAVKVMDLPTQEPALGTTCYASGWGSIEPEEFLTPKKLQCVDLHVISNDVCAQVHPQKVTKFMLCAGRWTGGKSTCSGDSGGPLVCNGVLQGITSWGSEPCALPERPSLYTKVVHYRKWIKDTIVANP

second-order rate constant for PSA inhibition (discontinuous assay of residual PSA activity on a chromogenic substrate, 350 nM PSA, 10-fold excess of PCI, 25°C, pH 7.4)	Molecule
4.1 M^−1s^−1	Protein C inhibitor from human blood plasma lacking the six NH2-terminal amino acids (natural protein)
4.3 M^−1s^−1	Natural full-length protein C inhibitor from human blood plasma (natural protein, N-glycans at Asn-230, Asn-243 and Asn-319) EMKKRVEDLHVGATVAPSSRRDFTFDLYRALASAAPSQSIFFSPVSISMSLAMLSLGAGSSTKMQILEGLGLNLQKSSEKELHRGFQQLLQELNQPRDGFQLSLGNALFTDLVVDLQDTFVSAMKTLYLADTFPTNFRDSAGAMKQINDYVAKQTKGKIVDLLKNLDSNAVVIMVNYIFFKAKWETSFNHKGTQEQDFYVTSETVVRVPMMSREDQYHYLLDRNLSCRVVGVPYQGNATALFILPSEGKMQQVENGLSEKTLRKWLKMFKKRQLELYLPKFSIEGSYQLEKVLPSLGISNVFTSHADLSGISNHSNIQVSEMVHKAVVEVDESGTRAAAATGTIFTFRSARLNSQRLVFNRPFLMFIVDNNILFLGKVNRP
5.2 M^−1s^−1	Neuraminic acid free full-length protein C inhibitor from human blood plasma (natural protein, N-glycans at Asn-230, Asn-243 and Asn-319, sialic acids removed with neuraminidase) EMKKRVEDLHVGATVAPSSRRDFTFDLYRALASAAPSQSIFFSPVSISMSLAMLSLGAGSSTKMQILEGLGLNLQKSSEKELHRGFQQLLQELNQPRDGFQLSLGNALFTDLVVDLQDTFVSAMKTLYLADTFPTNFRDSAGAMKQINDYVAKQTKGKIVDLLKNLDSNAVVIMVNYIFFKAKWETSFNHKGTQEQDFYVTSETVVRVPMMSREDQYHYLLDRNLSCRVVGVPYQGNATALFILPSEGKMQQVENGLSEKTLRKWLKMFKKRQLELYLPKFSIEGSYQLEKVLPSLGISNVFTSHADLSGISNHSNIQVSEMVHKAVVEVDESGTRAAAATGTIFTFRSARLNSQRLVFNRPFLMFIVDNNILFLGKVNRP

The next lines start with the molecule.

Molecule	second-order rate constant for PSA inhibition (discontinuous assay of residual PSA activity on a chromogenic substrate, 350 nM PSA, 10-fold excess of PCI, 25°C, pH 7.4)
Neuraminic acid free, NH2-terminally cleaved protein C inhibitor from human blood plasma (natural protein)	5.8 M^−1s^−1
PNGase F-treated protein C inhibitor from human blood plasma lacking the six NH2-terminal amino acids (natural protein)	29 M^−1s^−1
PNGase F-treated full-length protein C inhibitor from human blood plasma (natural protein, N-glycans removed with PNGase F) EMKKRVEDLHVGATVAPSSRRDFTFDLYRALASAAPSQSIFFSPVSISMSLAMLSLGAGSSTKMQILEGLGLNLQKSSEKELHRGFQQLLQELNQPRDGFQLSLGNALFTDLVVDLQDTFVSAMKTLYLADTFPTNFRDSAGAMKQINDYVAKQTKGKIVDLLKNLDSNAVVIMVNYIFFKAKWETSFNHKGTQEQDFYVTSETVVRVPMMSREDQYHYLLDRNLSCRVVGVPYQGNATALFILPSEGKMQQVENGLSEKTLRKWLKMFKKRQLELYLPKFSIEGSYQLEKVLPSLGISNVFTSHADLSGISNHSNIQVSEMVHKAVVEVDESGTRAAAATGTIFTFRSARLNSQRLVFNRPFLMFIVDNNILFLGKVNRP	4.8 M^−1s^−1
